T1: BMPRIb receptor-Fc fusion (UniProt O00238 14-126)
T1 construct: BMP receptor-Fc fusion used at 5 ug/mL; also called ALK-6
T1 sequence (looked up): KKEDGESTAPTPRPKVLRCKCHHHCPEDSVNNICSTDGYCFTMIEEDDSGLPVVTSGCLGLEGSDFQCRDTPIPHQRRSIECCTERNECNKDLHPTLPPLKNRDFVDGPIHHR

T2: BMPRII receptor-Fc fusion (UniProt Q13873 27-151, limits assumed)
T2 construct: BMP receptor-Fc fusion used at 5 ug/mL
T2 sequence (looked up): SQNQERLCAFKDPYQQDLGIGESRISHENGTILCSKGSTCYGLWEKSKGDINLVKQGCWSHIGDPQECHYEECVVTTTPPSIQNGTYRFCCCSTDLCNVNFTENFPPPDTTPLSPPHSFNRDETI


Columns and labels:
Assay in all cases: ELISA-like plate assay, captured BMP-7 from conditioned media, receptor-Fc detection
[1] = target: T1, BMPRIb receptor-Fc fusion
[2] = target: T3, ActRIIa receptor-Fc fusion (UniProt P27037 20-134, limits assumed)
T3 construct: BMP receptor-Fc fusion used at 5 ug/mL
T3 sequence (P27037 20-134 limits assumed): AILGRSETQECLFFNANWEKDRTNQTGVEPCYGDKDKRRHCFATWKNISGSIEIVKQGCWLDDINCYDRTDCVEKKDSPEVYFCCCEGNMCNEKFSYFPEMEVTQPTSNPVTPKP

[3] = target: T2, BMPRII receptor-Fc fusion
[4] = target: T4, BMPRIa receptor-Fc fusion (UniProt P36894 24-152, limits assumed)
T4 construct: also called ALK-3
T4 sequence (P36894 24-152 limits assumed): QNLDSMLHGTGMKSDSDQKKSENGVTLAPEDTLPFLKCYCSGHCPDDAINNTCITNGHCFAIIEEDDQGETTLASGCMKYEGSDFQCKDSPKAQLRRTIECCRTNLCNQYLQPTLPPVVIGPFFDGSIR

Row | Binder | BMPRIb binding (relative to wild type = 1.0) [1] | ActRIIa binding (relative to wild type = 1.0) [2] | BMPRII binding (relative to wild type = 1.0) [3] | BMPRIa binding (relative to wild type = 1.0) [4]
1 | BMP-7 variant E60H (ligand, In conditioned media; numbering on mature BMP-7) STGGKQRSQNRSKTPKNQEALRMASVAENSSSDQRQACKKHELYVSFRDLGWQDWIIAPHGYAAYYCEGECAFPLNSYMNATNHAIVQTLVHFINPETVPKPCCAPTQLNAISVLYFDDSSNVILKKYRNMVVRACGCH | 0.42 relative to wild type | 0.86 relative to wild type | 1.25 relative to wild type | 0.34 relative to wild type
2 | BMP-7 variant F73Q (ligand, In conditioned media; numbering on mature BMP-7) STGGKQRSQNRSKTPKNQEALRMASVAENSSSDQRQACKKHELYVSFRDLGWQDWIIAPEGYAAYYCEGECAQPLNSYMNATNHAIVQTLVHFINPETVPKPCCAPTQLNAISVLYFDDSSNVILKKYRNMVVRACGCH | 1.71 relative to wild type | 1.87 relative to wild type | 2.85 relative to wild type | 1.05 relative to wild type
3 | BMP-7 variant F93H (ligand, In conditioned media; numbering on mature BMP-7) STGGKQRSQNRSKTPKNQEALRMASVAENSSSDQRQACKKHELYVSFRDLGWQDWIIAPEGYAAYYCEGECAFPLNSYMNATNHAIVQTLVHHINPETVPKPCCAPTQLNAISVLYFDDSSNVILKKYRNMVVRACGCH | 1.04 relative to wild type | 0.98 relative to wild type | 1.2 relative to wild type | 1.03 relative to wild type
4 | BMP-7 variant S77H (ligand, In conditioned media; numbering on mature BMP-7) STGGKQRSQNRSKTPKNQEALRMASVAENSSSDQRQACKKHELYVSFRDLGWQDWIIAPEGYAAYYCEGECAFPLNHYMNATNHAIVQTLVHFINPETVPKPCCAPTQLNAISVLYFDDSSNVILKKYRNMVVRACGCH | 0.3 relative to wild type | 0.42 relative to wild type |  | 0.29 relative to wild type
5 | BMP-7 variant F73E (ligand, In conditioned media; numbering on mature BMP-7) STGGKQRSQNRSKTPKNQEALRMASVAENSSSDQRQACKKHELYVSFRDLGWQDWIIAPEGYAAYYCEGECAEPLNSYMNATNHAIVQTLVHFINPETVPKPCCAPTQLNAISVLYFDDSSNVILKKYRNMVVRACGCH | 1.23 relative to wild type | 1.87 relative to wild type | 1.77 relative to wild type | 0.55 relative to wild type
6 | BMP-7 variant F73D (ligand, In conditioned media; numbering on mature BMP-7) STGGKQRSQNRSKTPKNQEALRMASVAENSSSDQRQACKKHELYVSFRDLGWQDWIIAPEGYAAYYCEGECADPLNSYMNATNHAIVQTLVHFINPETVPKPCCAPTQLNAISVLYFDDSSNVILKKYRNMVVRACGCH | 0.64 relative to wild type | 2.5 relative to wild type | 3.05 relative to wild type | 0.33 relative to wild type
7 | BMP-7 variant E60P (ligand, In conditioned media; numbering on mature BMP-7) STGGKQRSQNRSKTPKNQEALRMASVAENSSSDQRQACKKHELYVSFRDLGWQDWIIAPPGYAAYYCEGECAFPLNSYMNATNHAIVQTLVHFINPETVPKPCCAPTQLNAISVLYFDDSSNVILKKYRNMVVRACGCH | 0.53 relative to wild type | 0.94 relative to wild type | 1.01 relative to wild type | 0.47 relative to wild type
8 | BMP-7 variant W52P (ligand, In conditioned media; numbering on mature BMP-7) STGGKQRSQNRSKTPKNQEALRMASVAENSSSDQRQACKKHELYVSFRDLGPQDWIIAPEGYAAYYCEGECAFPLNSYMNATNHAIVQTLVHFINPETVPKPCCAPTQLNAISVLYFDDSSNVILKKYRNMVVRACGCH | 0.14 relative to wild type |  |  | 
9 | BMP-7 variant R48E (ligand, In conditioned media; numbering on mature BMP-7) STGGKQRSQNRSKTPKNQEALRMASVAENSSSDQRQACKKHELYVSFEDLGWQDWIIAPEGYAAYYCEGECAFPLNSYMNATNHAIVQTLVHFINPETVPKPCCAPTQLNAISVLYFDDSSNVILKKYRNMVVRACGCH |  | 0.34 relative to wild type |  | 0.45 relative to wild type
10 | BMP-7 variant F93D (ligand, In conditioned media; numbering on mature BMP-7) STGGKQRSQNRSKTPKNQEALRMASVAENSSSDQRQACKKHELYVSFRDLGWQDWIIAPEGYAAYYCEGECAFPLNSYMNATNHAIVQTLVHDINPETVPKPCCAPTQLNAISVLYFDDSSNVILKKYRNMVVRACGCH | 0.91 relative to wild type | 0.8 relative to wild type | 0.62 relative to wild type | 0.96 relative to wild type
11 | BMP-7 variant F93E (ligand, In conditioned media; numbering on mature BMP-7) STGGKQRSQNRSKTPKNQEALRMASVAENSSSDQRQACKKHELYVSFRDLGWQDWIIAPEGYAAYYCEGECAFPLNSYMNATNHAIVQTLVHEINPETVPKPCCAPTQLNAISVLYFDDSSNVILKKYRNMVVRACGCH | 0.99 relative to wild type | 0.79 relative to wild type | 0.62 relative to wild type | 0.83 relative to wild type
12 | BMP-7 variant F73K (ligand, In conditioned media; numbering on mature BMP-7) STGGKQRSQNRSKTPKNQEALRMASVAENSSSDQRQACKKHELYVSFRDLGWQDWIIAPEGYAAYYCEGECAKPLNSYMNATNHAIVQTLVHFINPETVPKPCCAPTQLNAISVLYFDDSSNVILKKYRNMVVRACGCH | 1.14 relative to wild type | 0.61 relative to wild type | 0.38 relative to wild type | 0.69 relative to wild type
13 | BMP-7 variant L90R (ligand, In conditioned media; numbering on mature BMP-7) STGGKQRSQNRSKTPKNQEALRMASVAENSSSDQRQACKKHELYVSFRDLGWQDWIIAPEGYAAYYCEGECAFPLNSYMNATNHAIVQTRVHFINPETVPKPCCAPTQLNAISVLYFDDSSNVILKKYRNMVVRACGCH |  | 0.47 relative to wild type |  | 
14 | BMP-7 variant W55A (ligand, In conditioned media; numbering on mature BMP-7) STGGKQRSQNRSKTPKNQEALRMASVAENSSSDQRQACKKHELYVSFRDLGWQDAIIAPEGYAAYYCEGECAFPLNSYMNATNHAIVQTLVHFINPETVPKPCCAPTQLNAISVLYFDDSSNVILKKYRNMVVRACGCH | 0.23 relative to wild type |  |  | 0.1 relative to wild type
15 | BMP-7 variant L115A (ligand, In conditioned media; numbering on mature BMP-7) STGGKQRSQNRSKTPKNQEALRMASVAENSSSDQRQACKKHELYVSFRDLGWQDWIIAPEGYAAYYCEGECAFPLNSYMNATNHAIVQTLVHFINPETVPKPCCAPTQLNAISVAYFDDSSNVILKKYRNMVVRACGCH | 0.17 relative to wild type |  |  | 
16 | BMP-7 variant F93G (ligand, In conditioned media; numbering on mature BMP-7) STGGKQRSQNRSKTPKNQEALRMASVAENSSSDQRQACKKHELYVSFRDLGWQDWIIAPEGYAAYYCEGECAFPLNSYMNATNHAIVQTLVHGINPETVPKPCCAPTQLNAISVLYFDDSSNVILKKYRNMVVRACGCH | 0.53 relative to wild type | 0.63 relative to wild type | 0.35 relative to wild type | 0.6 relative to wild type
17 | BMP-7 variant L21E (ligand, In conditioned media; numbering on mature BMP-7) STGGKQRSQNRSKTPKNQEAERMASVAENSSSDQRQACKKHELYVSFRDLGWQDWIIAPEGYAAYYCEGECAFPLNSYMNATNHAIVQTLVHFINPETVPKPCCAPTQLNAISVLYFDDSSNVILKKYRNMVVRACGCH | 0.16 relative to wild type | 0.25 relative to wild type |  | 0.12 relative to wild type
18 | BMP-7 variant F93A (ligand, In conditioned media; numbering on mature BMP-7) STGGKQRSQNRSKTPKNQEALRMASVAENSSSDQRQACKKHELYVSFRDLGWQDWIIAPEGYAAYYCEGECAFPLNSYMNATNHAIVQTLVHAINPETVPKPCCAPTQLNAISVLYFDDSSNVILKKYRNMVVRACGCH | 0.24 relative to wild type | 0.11 relative to wild type |  | 0.1 relative to wild type
19 | BMP-7 variant F73N (ligand, In conditioned media; numbering on mature BMP-7) STGGKQRSQNRSKTPKNQEALRMASVAENSSSDQRQACKKHELYVSFRDLGWQDWIIAPEGYAAYYCEGECANPLNSYMNATNHAIVQTLVHFINPETVPKPCCAPTQLNAISVLYFDDSSNVILKKYRNMVVRACGCH | 0.95 relative to wild type | 0.89 relative to wild type | 0.85 relative to wild type | 0.51 relative to wild type
20 | BMP-7 variant F73S (ligand, In conditioned media; numbering on mature BMP-7) STGGKQRSQNRSKTPKNQEALRMASVAENSSSDQRQACKKHELYVSFRDLGWQDWIIAPEGYAAYYCEGECASPLNSYMNATNHAIVQTLVHFINPETVPKPCCAPTQLNAISVLYFDDSSNVILKKYRNMVVRACGCH | 0.25 relative to wild type | 2.54 relative to wild type | 2.84 relative to wild type | 0.9 relative to wild type
21 | BMP-7 variant F117S (ligand, In conditioned media; numbering on mature BMP-7) STGGKQRSQNRSKTPKNQEALRMASVAENSSSDQRQACKKHELYVSFRDLGWQDWIIAPEGYAAYYCEGECAFPLNSYMNATNHAIVQTLVHFINPETVPKPCCAPTQLNAISVLYSDDSSNVILKKYRNMVVRACGCH |  | 0.11 relative to wild type |  | 0.15 relative to wild type

— US20060058231A1 (Xencor, published 2006)
